Experimental data reported in patent publication US20120014957A1 (AbbVie / Abbott, published 2012).

B1: DVD1316 (bispecific antibody, human IgG1, kappa)
heavy: not shown
light: DVVMTQSPLSLPVTPGEPASISCRSSQSLLHSNGFNYVDWYLQKPGQSPHLLIYFGSYRASGVPDRFSGSGSGTDFTLKISRVEAEDVGVYYCMQALQTPPWTFGQGTKVEIRRTVAAPDIQMTQSPSSLSASVGDRVTITCRASEDIYNALAWYQQKPGKAPKLLIYNTDTLHTGVPSRFSGSGSGTDYTLTISSLQPEDFATYFCQHYFHYPRTFGQGTKVEIKRTVAAPSVFIFPPSDEQLKSGTASVVCLLNNFYPREAKVQWKVDNALQSGNSQESVTEQDSKDSTYSLSSTLTLSKADYEKHKVYACEVTHQGLSSPVTKSFNRGEC
B2: DVD1362 (bispecific antibody, human IgG1, kappa)
heavy: not shown
light: QSALTQPASVSGSPGQSITISCTGTSSDVGSYNVVSWYQQHPGKAPKLIIYEVSQRPSGVSNRFSGSKSGNTASLTISGLQTEDEADYYCCSYAGSSIFVIFGGGTKVTVLGQPKAAPDIQMTQSPSSLSASVGDRVTITCRASEDIYNALAWYQQKPGKAPKLLIYNTDTLHTGVPSRFSGSGSGTDYTLTISSLQPEDFATYFCQHYFHYPRTFGQGTKVEIKRTVAAPSVFIFPPSDEQLKSGTASVVCLLNNFYPREAKVQWKVDNALQSGNSQESVTEQDSKDSTYSLSSTLTLSKADYEKHKVYACEVTHQGLSSPVTKSFNRGEC
B3: DVD1338 (bispecific antibody, human IgG1, kappa)
heavy: not shown
light: DIQMTQSPSSLSASVGDRVTITCQASQDISNYLNWYQQKPGKAPKLLIYDASNLETGVPSRFSGSGSGTDFTFTISSLQPEDIATYFCQHFDHLPLAFGGGTKVEIKRTVAAPDIQMTQSPSSLSASVGDRVTITCRASEDIYNALAWYQQKPGKAPKLLIYNTDTLHTGVPSRFSGSGSGTDYTLTISSLQPEDFATYFCQHYFHYPRTFGQGTKVEIKRTVAAPSVFIFPPSDEQLKSGTASVVCLLNNFYPREAKVQWKVDNALQSGNSQESVTEQDSKDSTYSLSSTLTLSKADYEKHKVYACEVTHQGLSSPVTKSFNRGEC
B4: DVD1335 (bispecific antibody, human IgG1, kappa)
heavy: not shown
light: DIQMTQSPSSLSASVGDRVTITCRASEDIYNALAWYQQKPGKAPKLLIYNTDTLHTGVPSRFSGSGSGTDYTLTISSLQPEDFATYFCQHYFHYPRTFGQGTKVEIKRTVAAPQIVLSQSPAILSPSPGEKVTMTCRASSSVSYIHWFQQKPGSSPKPWIYATSNLASGVPVRFSGSGSGTSYSLTISRVEAEDAATYYCQQWTSNPPTFGGGTKLEIKRTVAAPSVFIFPPSDEQLKSGTASVVCLLNNFYPREAKVQWKVDNALQSGNSQESVTEQDSKDSTYSLSSTLTLSKADYEKHKVYACEVTHQGLSSPVTKSFNRGEC
B5: DVD1315 (bispecific antibody, human IgG1, kappa)
heavy: not shown
light: DIQMTQSPSSLSASVGDRVTITCRASEDIYNALAWYQQKPGKAPKLLIYNTDTLHTGVPSRFSGSGSGTDYTLTISSLQPEDFATYFCQHYFHYPRTFGQGTKVEIKRTVAAPDVVMTQSPLSLPVTPGEPASISCRSSQSLLHSNGFNYVDWYLQKPGQSPHLLIYFGSYRASGVPDRFSGSGSGTDFTLKISRVEAEDVGVYYCMQALQTPPWTFGQGTKVEIRRTVAAPSVFIFPPSDEQLKSGTASVVCLLNNFYPREAKVQWKVDNALQSGNSQESVTEQDSKDSTYSLSSTLTLSKADYEKHKVYACEVTHQGLSSPVTKSFNRGEC
B6: DVD1313 (bispecific antibody, human IgG1, lambda)
heavy: not shown
light: DIQMTQSPSSLSASVGDRVTITCRASEDIYNALAWYQQKPGKAPKLLIYNTDTLHTGVPSRFSGSGSGTDYTLTISSLQPEDFATYFCQHYFHYPRTFGQGTKVEIKRTVAAPQSVLTQPPSVSAAPGQKVTISCSGSSSNIENNHVSWYQQLPGTAPKLLIYDNNKRPSGIPDRFSGSKSGTSATLGITGLQTGDEADYYCETWDTSLSAGRVFGGGTKLTVLGQPKAAPSVTLFPPSSEELQANKATLVCLISDFYPGAVTVAWKADSSPVKAGVETTTPSKQSNNKYAASSYLSLTPEQWKSHRSYSCQVTHEGSTVEKTVAPTECS
B7: DVD1333 (bispecific antibody, human IgG1, kappa)
heavy: not shown
light: DIQMTQSPSSLSASVGDRVTITCRASEDIYNALAWYQQKPGKAPKLLIYNTDTLHTGVPSRFSGSGSGTDYTLTISSLQPEDFATYFCQHYFHYPRTFGQGTKVEIKRTVAAPQAVLTQPSSLSAPPGASASLTCTLRSGFNVDSYRISWYQQKPGSPPQYLLRYKSDSDKQQGSGVPSRFSGSKDASANAGILLISGLQSEDEADYYCMIWHSSAWVFGGGTKLTVLRTVAAPSVFIFPPSDEQLKSGTASVVCLLNNFYPREAKVQWKVDNALQSGNSQESVTEQDSKDSTYSLSSTLTLSKADYEKHKVYACEVTHQGLSSPVTKSFNRGEC
B8: DVD1314 (bispecific antibody, human IgG1, kappa)
heavy: not shown
light: QSVLTQPPSVSAAPGQKVTISCSGSSSNIENNHVSWYQQLPGTAPKLLIYDNNKRPSGIPDRFSGSKSGTSATLGITGLQTGDEADYYCETWDTSLSAGRVFGGGTKLTVLGQPKAAPDIQMTQSPSSLSASVGDRVTITCRASEDIYNALAWYQQKPGKAPKLLIYNTDTLHTGVPSRFSGSGSGTDYTLTISSLQPEDFATYFCQHYFHYPRTFGQGTKVEIKRTVAAPSVFIFPPSDEQLKSGTASVVCLLNNFYPREAKVQWKVDNALQSGNSQESVTEQDSKDSTYSLSSTLTLSKADYEKHKVYACEVTHQGLSSPVTKSFNRGEC
B9: DVD1318 (bispecific antibody, human IgG1, kappa)
heavy: not shown
light: DIEMTQSPDSLAVSLGERATINCRSSQSVLYSSSNRNYLAWYQQNPGQPPKLLIYWASTRESGVPDRFSGSGSGTDFTLTISSLQAEDVAVYYCQQYYSTPRTFGQGTKVEIKRTVAAPDIQMTQSPSSLSASVGDRVTITCRASEDIYNALAWYQQKPGKAPKLLIYNTDTLHTGVPSRFSGSGSGTDYTLTISSLQPEDFATYFCQHYFHYPRTFGQGTKVEIKRTVAAPSVFIFPPSDEQLKSGTASVVCLLNNFYPREAKVQWKVDNALQSGNSQESVTEQDSKDSTYSLSSTLTLSKADYEKHKVYACEVTHQGLSSPVTKSFNRGEC

Biological target: Recombinant Human β-NGF (human, UniProt P01138 122-241)
Assay: cell-based or functional assay

Row | Binder | C-Terminal VD NGF Inhibition Assay EC50 | N-Terminal VD NGF Inhibition Assay EC50
1 | B1 | 874 pM | –
2 | B2 | 2.5 pM | –
3 | B3 | 1270 pM | –
4 | B4 | – | 0.3 pM
5 | B5 | – | 2.2 pM
6 | B6 | – | 0.9 pM
7 | B7 | – | 0.6 pM
8 | B8 | 0.3 pM | –
9 | B9 | 53.4 pM | –
